How the values were obtained:
Experiment in all cases: fluorescence polarisation; fluorescence anisotropy; Rtt103p CID titrated into 10 nM N-terminally FAM-labelled CTD peptide; 10°C; 35 mM KH2PO4, 100 mM KCl, pH 6.8; 1:1 model with non-specific binding (DynaFit)
[1] = target: FAM-PSY(pS)P(pT)…
[2] = target: FAM-PSY(pS)…
[3] = target: FAM-PSYSP(pT)SPSYSP(pT)SPS
[4] = target: FAM-PSYSP(pT)…
[5] = target: FAM-…

Question: How did the Kd [1] turn out when “Rtt103p CTD-interacting domain (CID) (3-131-6xHIS) (from UniProt Q05543 3-131) (domain or fragment)” was run?
Answer: 43 µM

Question: What about the Kd [2] of the same substance?
Answer: 6 µM

Question: And the Kd [3]?
Answer: 6 µM

Question: And the Kd [4]?
Answer: 15 µM

Question: What about the Kd [5] of the same substance?
Answer: 64 µM
